Test results published in paper PMC9282251.

T1: GFP-tagged Kif4A (human), O95239
T1 chain: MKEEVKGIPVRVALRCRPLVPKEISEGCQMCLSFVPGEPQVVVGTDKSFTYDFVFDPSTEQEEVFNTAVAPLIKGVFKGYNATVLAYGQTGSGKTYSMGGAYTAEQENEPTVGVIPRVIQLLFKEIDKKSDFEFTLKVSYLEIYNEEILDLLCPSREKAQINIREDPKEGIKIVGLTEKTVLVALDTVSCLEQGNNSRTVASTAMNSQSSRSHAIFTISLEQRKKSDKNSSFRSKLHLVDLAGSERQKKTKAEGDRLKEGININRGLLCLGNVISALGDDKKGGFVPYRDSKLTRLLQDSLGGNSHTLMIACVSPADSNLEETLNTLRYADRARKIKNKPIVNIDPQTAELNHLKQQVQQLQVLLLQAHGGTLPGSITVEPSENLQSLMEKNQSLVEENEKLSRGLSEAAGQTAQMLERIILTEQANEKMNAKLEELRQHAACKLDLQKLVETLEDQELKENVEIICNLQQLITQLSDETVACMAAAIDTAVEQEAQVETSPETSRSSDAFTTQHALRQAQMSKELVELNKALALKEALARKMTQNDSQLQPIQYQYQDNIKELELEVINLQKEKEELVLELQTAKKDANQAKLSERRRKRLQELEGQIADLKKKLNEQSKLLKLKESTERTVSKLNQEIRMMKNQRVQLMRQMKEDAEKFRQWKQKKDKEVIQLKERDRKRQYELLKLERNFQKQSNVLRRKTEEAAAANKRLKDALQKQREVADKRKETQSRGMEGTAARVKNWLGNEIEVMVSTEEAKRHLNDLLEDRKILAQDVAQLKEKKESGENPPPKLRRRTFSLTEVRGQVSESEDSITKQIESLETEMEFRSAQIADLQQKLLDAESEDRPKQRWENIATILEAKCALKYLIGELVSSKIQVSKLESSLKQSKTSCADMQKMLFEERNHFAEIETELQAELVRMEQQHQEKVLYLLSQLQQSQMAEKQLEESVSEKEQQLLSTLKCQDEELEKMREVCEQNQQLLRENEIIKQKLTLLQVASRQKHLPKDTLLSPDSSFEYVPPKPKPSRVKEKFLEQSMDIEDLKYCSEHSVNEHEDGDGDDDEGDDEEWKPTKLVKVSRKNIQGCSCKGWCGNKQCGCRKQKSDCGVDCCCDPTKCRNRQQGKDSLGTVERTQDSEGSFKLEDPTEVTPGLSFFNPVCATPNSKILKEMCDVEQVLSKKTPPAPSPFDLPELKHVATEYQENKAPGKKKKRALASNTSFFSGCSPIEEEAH

T2: Kif4A-mCherry (human), O95239
T2 chain: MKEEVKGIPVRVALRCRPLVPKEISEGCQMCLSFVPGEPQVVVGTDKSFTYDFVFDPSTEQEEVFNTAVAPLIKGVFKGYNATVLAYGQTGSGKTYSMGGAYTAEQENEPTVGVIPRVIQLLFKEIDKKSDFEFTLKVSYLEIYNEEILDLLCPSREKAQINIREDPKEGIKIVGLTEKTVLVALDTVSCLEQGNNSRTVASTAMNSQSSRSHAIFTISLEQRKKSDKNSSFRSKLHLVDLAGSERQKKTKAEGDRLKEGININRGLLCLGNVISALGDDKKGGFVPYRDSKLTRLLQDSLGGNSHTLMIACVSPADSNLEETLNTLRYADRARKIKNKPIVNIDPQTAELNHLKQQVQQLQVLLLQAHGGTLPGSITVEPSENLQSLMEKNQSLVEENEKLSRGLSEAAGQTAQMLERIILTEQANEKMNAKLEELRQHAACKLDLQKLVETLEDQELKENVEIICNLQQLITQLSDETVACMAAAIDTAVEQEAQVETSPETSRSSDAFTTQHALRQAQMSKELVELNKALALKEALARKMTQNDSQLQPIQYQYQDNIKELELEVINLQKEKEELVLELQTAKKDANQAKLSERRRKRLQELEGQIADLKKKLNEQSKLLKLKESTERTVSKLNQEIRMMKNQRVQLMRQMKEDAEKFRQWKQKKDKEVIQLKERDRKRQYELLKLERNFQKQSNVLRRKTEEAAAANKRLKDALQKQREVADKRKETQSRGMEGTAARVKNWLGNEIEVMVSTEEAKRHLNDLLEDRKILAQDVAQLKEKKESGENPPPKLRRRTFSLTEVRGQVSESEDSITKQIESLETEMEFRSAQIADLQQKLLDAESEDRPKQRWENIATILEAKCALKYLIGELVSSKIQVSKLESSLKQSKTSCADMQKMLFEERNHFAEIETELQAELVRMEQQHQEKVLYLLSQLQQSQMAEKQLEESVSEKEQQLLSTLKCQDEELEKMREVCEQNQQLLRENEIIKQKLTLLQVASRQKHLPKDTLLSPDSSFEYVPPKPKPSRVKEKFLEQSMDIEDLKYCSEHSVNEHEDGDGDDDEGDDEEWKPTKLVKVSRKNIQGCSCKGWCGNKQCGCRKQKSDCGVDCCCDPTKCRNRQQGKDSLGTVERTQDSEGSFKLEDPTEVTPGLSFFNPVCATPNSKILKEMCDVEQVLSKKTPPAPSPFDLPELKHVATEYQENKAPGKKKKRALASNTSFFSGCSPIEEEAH


Assays:
[1] = target: T1, GFP-tagged Kif4A (human), O95239; experiment: single-molecule photobleaching and fluorescence intensity analysis; conditions: remark: other sources report otherwise
[2] = target: T2, Kif4A-mCherry (human), O95239; experiment: as above; conditions: remark: other sources report otherwise

Row | stoichiometry N [1] | stoichiometry N [2] | Binder
1 | 2 |  | GFP-tagged Kif4A, O95239 1-1232 (natural protein) MKEEVKGIPVRVALRCRPLVPKEISEGCQMCLSFVPGEPQVVVGTDKSFTYDFVFDPSTEQEEVFNTAVAPLIKGVFKGYNATVLAYGQTGSGKTYSMGGAYTAEQENEPTVGVIPRVIQLLFKEIDKKSDFEFTLKVSYLEIYNEEILDLLCPSREKAQINIREDPKEGIKIVGLTEKTVLVALDTVSCLEQGNNSRTVASTAMNSQSSRSHAIFTISLEQRKKSDKNSSFRSKLHLVDLAGSERQKKTKAEGDRLKEGININRGLLCLGNVISALGDDKKGGFVPYRDSKLTRLLQDSLGGNSHTLMIACVSPADSNLEETLNTLRYADRARKIKNKPIVNIDPQTAELNHLKQQVQQLQVLLLQAHGGTLPGSITVEPSENLQSLMEKNQSLVEENEKLSRGLSEAAGQTAQMLERIILTEQANEKMNAKLEELRQHAACKLDLQKLVETLEDQELKENVEIICNLQQLITQLSDETVACMAAAIDTAVEQEAQVETSPETSRSSDAFTTQHALRQAQMSKELVELNKALALKEALARKMTQNDSQLQPIQYQYQDNIKELELEVINLQKEKEELVLELQTAKKDANQAKLSERRRKRLQELEGQIADLKKKLNEQSKLLKLKESTERTVSKLNQEIRMMKNQRVQLMRQMKEDAEKFRQWKQKKDKEVIQLKERDRKRQYELLKLERNFQKQSNVLRRKTEEAAAANKRLKDALQKQREVADKRKETQSRGMEGTAARVKNWLGNEIEVMVSTEEAKRHLNDLLEDRKILAQDVAQLKEKKESGENPPPKLRRRTFSLTEVRGQVSESEDSITKQIESLETEMEFRSAQIADLQQKLLDAESEDRPKQRWENIATILEAKCALKYLIGELVSSKIQVSKLESSLKQSKTSCADMQKMLFEERNHFAEIETELQAELVRMEQQHQEKVLYLLSQLQQSQMAEKQLEESVSEKEQQLLSTLKCQDEELEKMREVCEQNQQLLRENEIIKQKLTLLQVASRQKHLPKDTLLSPDSSFEYVPPKPKPSRVKEKFLEQSMDIEDLKYCSEHSVNEHEDGDGDDDEGDDEEWKPTKLVKVSRKNIQGCSCKGWCGNKQCGCRKQKSDCGVDCCCDPTKCRNRQQGKDSLGTVERTQDSEGSFKLEDPTEVTPGLSFFNPVCATPNSKILKEMCDVEQVLSKKTPPAPSPFDLPELKHVATEYQENKAPGKKKKRALASNTSFFSGCSPIEEEAH
2 |  | 2 | Kif4A-mCherry, O95239 1-1232 (natural protein) MKEEVKGIPVRVALRCRPLVPKEISEGCQMCLSFVPGEPQVVVGTDKSFTYDFVFDPSTEQEEVFNTAVAPLIKGVFKGYNATVLAYGQTGSGKTYSMGGAYTAEQENEPTVGVIPRVIQLLFKEIDKKSDFEFTLKVSYLEIYNEEILDLLCPSREKAQINIREDPKEGIKIVGLTEKTVLVALDTVSCLEQGNNSRTVASTAMNSQSSRSHAIFTISLEQRKKSDKNSSFRSKLHLVDLAGSERQKKTKAEGDRLKEGININRGLLCLGNVISALGDDKKGGFVPYRDSKLTRLLQDSLGGNSHTLMIACVSPADSNLEETLNTLRYADRARKIKNKPIVNIDPQTAELNHLKQQVQQLQVLLLQAHGGTLPGSITVEPSENLQSLMEKNQSLVEENEKLSRGLSEAAGQTAQMLERIILTEQANEKMNAKLEELRQHAACKLDLQKLVETLEDQELKENVEIICNLQQLITQLSDETVACMAAAIDTAVEQEAQVETSPETSRSSDAFTTQHALRQAQMSKELVELNKALALKEALARKMTQNDSQLQPIQYQYQDNIKELELEVINLQKEKEELVLELQTAKKDANQAKLSERRRKRLQELEGQIADLKKKLNEQSKLLKLKESTERTVSKLNQEIRMMKNQRVQLMRQMKEDAEKFRQWKQKKDKEVIQLKERDRKRQYELLKLERNFQKQSNVLRRKTEEAAAANKRLKDALQKQREVADKRKETQSRGMEGTAARVKNWLGNEIEVMVSTEEAKRHLNDLLEDRKILAQDVAQLKEKKESGENPPPKLRRRTFSLTEVRGQVSESEDSITKQIESLETEMEFRSAQIADLQQKLLDAESEDRPKQRWENIATILEAKCALKYLIGELVSSKIQVSKLESSLKQSKTSCADMQKMLFEERNHFAEIETELQAELVRMEQQHQEKVLYLLSQLQQSQMAEKQLEESVSEKEQQLLSTLKCQDEELEKMREVCEQNQQLLRENEIIKQKLTLLQVASRQKHLPKDTLLSPDSSFEYVPPKPKPSRVKEKFLEQSMDIEDLKYCSEHSVNEHEDGDGDDDEGDDEEWKPTKLVKVSRKNIQGCSCKGWCGNKQCGCRKQKSDCGVDCCCDPTKCRNRQQGKDSLGTVERTQDSEGSFKLEDPTEVTPGLSFFNPVCATPNSKILKEMCDVEQVLSKKTPPAPSPFDLPELKHVATEYQENKAPGKKKKRALASNTSFFSGCSPIEEEAH
